Reference: PMC2783927

Key:
[1] = biological target: IL-17RA extracellular domain, C-terminally biotinylated (human) (UniProt Q96F46); assay: SPR
[2] = biological target: IL-17RC extracellular domain, C-terminally biotinylated (UniProt Q8NAC3); assay: SPR
[3] = biological target: IL-17F homodimer (for binding experiments) (human) (UniProt Q96PD4); assay: SEC
[4] = biological target: IL-17RB-IL-25 complex, pre-assembled on the SPR chip (UniProt Q9NRM6); assay: SPR
[5] = biological target: IL-17RC-IL-17A complex, pre-assembled on the SPR chip (UniProt Q8NAC3); assay: SPR
[6] = biological target: IL-17RC-IL-17F complex, pre-assembled on the SPR chip (UniProt Q8NAC3); assay: SPR
[7] = biological target: T1, IL-17F homodimer (crystallised form: tag cleaved, lysine-methylated) (human), Q96PD4; assay: SDS-PAGE; conditions: remark: other sources report otherwise
T1 chain: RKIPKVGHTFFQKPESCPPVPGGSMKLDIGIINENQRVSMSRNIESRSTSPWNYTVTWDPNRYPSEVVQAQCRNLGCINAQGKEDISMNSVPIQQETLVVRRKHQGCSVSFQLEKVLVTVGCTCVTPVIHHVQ

[8] = biological target: T1, IL-17F homodimer (crystallised form: …); assay: crystal structure; conditions: remark: other sources report otherwise

Chain of UniProt Q9NRM6 (Q9NRM6 18-292, chain 1 of 2): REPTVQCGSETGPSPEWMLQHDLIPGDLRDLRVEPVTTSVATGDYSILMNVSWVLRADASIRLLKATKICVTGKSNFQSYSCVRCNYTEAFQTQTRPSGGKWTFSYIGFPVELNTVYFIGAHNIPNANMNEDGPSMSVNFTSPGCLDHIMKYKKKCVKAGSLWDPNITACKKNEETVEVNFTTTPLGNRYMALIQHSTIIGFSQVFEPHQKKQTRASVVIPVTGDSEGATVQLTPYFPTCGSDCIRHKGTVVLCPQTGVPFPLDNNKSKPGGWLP
Chain of UniProt Q9NRM6 (Q9H293 33-177, chain 2 of 2, further chain): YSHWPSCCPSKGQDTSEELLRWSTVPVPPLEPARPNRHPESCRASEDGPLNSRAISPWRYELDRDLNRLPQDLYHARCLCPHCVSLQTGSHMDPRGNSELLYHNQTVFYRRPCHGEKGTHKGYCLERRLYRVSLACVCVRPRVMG

IL-17A homodimer (from UniProt Q16552 24-155) (ligand)
Kd [1]: 2.8 nM | Kd [2]: 1.2 nM

IL-17F homodimer (for binding experiments) (from UniProt Q96PD4 31-163) (ligand)
Kd [1]: 292 nM | Kd [2]: 4.4 nM

IL-17RA extracellular domain, soluble (without BirA ligase tag) (receptor)
stoichiometry N (receptor per IL-17 dimer) [3]: 1 | stoichiometry N (receptors per IL-17 dimer) [3]: 2 | Kd [4]: 14100 nM | Kd [5]: 162 nM | Kd [6]: 23800 nM

B1: IL-17RC extracellular domain, soluble (without BirA ligase tag) (receptor)
chain: LERLVGPQDATHCSPVSLEPWGDEERLRVQFLAQQSLSLAPVTAATARTALSGLSGADGRREERGRGKSWVCLSLGGSGNTEPQKKGLSCRLWDSDILCLPGDIVPAPGPVLAPTHLQTELVLRCQKETDCDLCLRVAVHLAVHGHWEEPEDEEKFGGAADSGVEEPRNASLQAQVVLSFQAYPTARCVLLEVQVPAALVQFGQSVGSVVYDCFEAALGSEVRIWSYTQPRYEKELNHTQQLPDCRGLEVWNSIPSCWALPWLNVSADGDNVHLVLNVSEEQHFGLSLYWNQVQGPPKPRWHKNLTGPQIITLNHTDLVPCLCIQVWPLEPDSVRTNICPFREDPRAHQNLWQAARLQLLTLQSWLLDAPCSLPAEAALCWRAPGGDPCQPLVPPLSWENVTVDKVLEFPLLKGHPNLCVQVNSSEKLQLQECLWADSLGPLKDDVLLLETRGPQDNRSLCALEPSGCTSLPSKASTRAARLGEYLLQDLQSGQCLQLWDDDLGALWACPMDKYIHKR
Kd [5]: 8000 nM

B2: IL-17F homodimer (crystallised form: tag cleaved, lysine-methylated), Q96PD4 31-163 (ligand)
chain: RKIPKVGHTFFQKPESCPPVPGGSMKLDIGIINENQRVSMSRNIESRSTSPWNYTVTWDPNRYPSEVVQAQCRNLGCINAQGKEDISMNSVPIQQETLVVRRKHQGCSVSFQLEKVLVTVGCTCVTPVIHHVQ
modifications: here or on the partner: reductive lysine methylation of the complex; reductive lysine methylation of the complex
stoichiometry N [7]: 2 | stoichiometry N [8]: 2
